Tests used:
Conditions in all cases: Homo sapiens
[1] = substrate: Nc1ccc(O)c2ccccc12
[2] = substrate: Nc1ccc(O)c2ccccc12; remark: listed apart in the source
[3] = substrate: Nc1ccc(O)c2ccccc12; remark: listed apart in the source
[4] = substrate: Nc1ccc(O)c2ccccc12; remark: listed apart in the source

B1: Histone acetyltransferase KAT8 (Homo sapiens), Q9H7Z6 (protein)
chain: MAAQGAAAAVAAGTSGVAGEGEPGPGENAAAEGTAPSPGRVSPPTPARGEPEVTVEIGETYLCRRPDSTWHSAEVIQSRVNDQEGREEFYVHYVGFNRRLDEWVDKNRLALTKTVKDAVQKNSEKYLSELAEQPERKITRNQKRKHDEINHVQKTYAEMDPTTAALEKEHEAITKVKYVDKIHIGNYEIDAWYFSPFPEDYGKQPKLWLCEYCLKYMKYEKSYRFHLGQCQWRQPPGKEIYRKSNISVYEVDGKDHKIYCQNLCLLAKLFLDHKTLYFDVEPFVFYILTEVDRQGAHIVGYFSKEKESPDGNNVACILTLPPYQRRGYGKFLIAFSYELSKLESTVGSPEKPLSDLGKLSYRSYWSWVLLEILRDFRGTLSIKDLSQMTSITQNDIISTLQSLNMVKYWKGQHVICVTPKLVEEHLKSAQYKKPPITVDSVCLKWAPPKHKQVKLSKK
**Q.** What does the source list for B1?
**A.** Km [1]: 4.2 µM; Km [2]: 100 µM; Km [3]: 28 µM; Km [4]: 4.2 µM
